B1: Nbr1(53-180) of the Ams1-Nbr1 fusion protein (domain or fragment, S. pombe, UniProt Q9P792 53-180, looked up)
chain: PTLRSSSVACNTCLKIIRNDSFHCTKCFDFDVCRDCYAKQAFLHPCPKPHFVLVRSSIPSVASLTCSVNSMSVSPQSNFMYAICDHCEQPIHNVRYKCSVCDDYDICESCLTDNSHSNTHAFVRITKA
notes: S. pombe Nbr1 residues 53-180 (ZZ1 and ZZ2); residues 59-108 are in the model; written as a molecule of its own for the pair; also called Nbr1-ZZ1; ZZ1; source: S. pombe, Pnmt1 promoter, purified (GFP-Trap beads, released by 3C protease); not shown: MBP, C-terminal, kept; GFP, C-terminal, cleaved
B2: Ams1 (full length) of the Ams1-Nbr1 fusion protein (enzyme, S. pombe, UniProt Q9UT61 2-1077, looked up)
chain: TLFPVLNNTPVGKQVDSIYESRLDQFLSEGQYRDFNLPSVYDHARIDNPSGDVNNDLSKGFVDLKVYRVPDLSRPSFNEVVGHKKFDETASKGDTFGPSWATFWFEVHIRLPKSWAKYEQVIFQWNCDNEGLVYSQDGVPLQAFSGSERTDFILPDSWKTTEDTFYIEMACNGMFGTGAGSQIAPPDPNRYFTLTKADLVAPNLPAMALAYDFLLMQQCVKQLPSNCWQKYKARQICNDIMNTFHPNDLSTINECRNLAKAFLGNDIDSEAVFEKNNDKANVFAIGHCHIDTAWLWPFAETRRKIVRSWATQMNIMDRYPEYQFVCSQALQYLWLKEDHPDVFEKLKEYVNQNKFIPIGGSWVEHDTNIPNGESLIRQFLLGQHFFEKEFGVRCRTFWLPDTFGYSSQIPQICRLCGMDRFLTQKLSWNNINSFPTSTFNWVALDGSQVICHMPPANTYTADTNVNDVLHSIDQHKNLVNDQAGLLVFGIGDGGGGPTPEMLEKLRRCKGIANTVGYLPNVKLGNTVDEFFDGILKRTNAGQTLPSWNGELYFEFHRGTYTTQAELKKLMRKVEIALHDAEYVSTLASIFSKDYSYPKESLQDLWRDTLLCQFHDVLPGSCIEMVYKDAIPIMSKVLKNTEALLWQAIEQLGFKKASSSDNKEQLCLLNTLPWNVRGVITETEENKLVYFESCDGKGILTAAHTSLKHPAAAYQKDDNFILVNDHLRVTIAPNGLILSLFDLHKEREILDLKSGKNHAGANQYVLFEDTPLSWQAWDTEVFSLEKYEVLDKGKVSIKESGPLRASVVVDIPISELSHMKATISLEGYNDCSEFTGVNFTCEVDWHESCKFLKVEFPVDIHSEFASYETQFGITKRPTHYNTSWDVAKFEVCHQKFADYSDFTYGVSVLNDCKYGFSTHGNLMRLSLLRSPKQPDAHADMGKHTIRYAVYPHSKPLDSSTVRAAHKFNSNFRLLTRASDTANLDIFDAFQLVGEPNVILSHIKMAEKGKSIILRVYESLGGKSRARLVIKSLTVASVTKCNGLEEDLEELCTLKSNDYYEVPIELRAFEIATFKVNL
notes: S. pombe alpha-mannosidase Ams1 (SPAC513.05), full length; the first methionine is removed in vivo, T2 is the most N-terminal residue in the density map; residues 2-1077 are in the model; written as a molecule of its own for the pair; also called Ams1_1; Ams1_3; source: S. pombe, Pnmt1 promoter, purified (GFP-Trap beads, released by 3C protease)

How the values were obtained:
[1] = molecular target: B2; experiment: cryo-EM structure; Ams1-linker-Nbr1(53-180)-MBP fusion protein purified from S. pombe; 2.4 Å, D2 symmetry; settings: both partners purified
[2] = molecular target: the molecule itself; experiment: as above

Row | Binder | stoichiometry N [1] | stoichiometry N [2]
1 | B1 | 4 Nbr1-ZZ1 molecules per Ams1 tetramer | 
2 | B2 |  | 4

Source: doi:10.1101/2021.02.07.430097, “Molecular and structural mechanisms of ZZ domain-mediated cargo recognition by autophagy receptor Nbr1” (bioRxiv, 2021)
